Molecular target: in vitro translated, 35S-labeled PARP (full length human poly(ADP-ribose) polymerase), P09874
Sequence (P09874 whole entry, looked up): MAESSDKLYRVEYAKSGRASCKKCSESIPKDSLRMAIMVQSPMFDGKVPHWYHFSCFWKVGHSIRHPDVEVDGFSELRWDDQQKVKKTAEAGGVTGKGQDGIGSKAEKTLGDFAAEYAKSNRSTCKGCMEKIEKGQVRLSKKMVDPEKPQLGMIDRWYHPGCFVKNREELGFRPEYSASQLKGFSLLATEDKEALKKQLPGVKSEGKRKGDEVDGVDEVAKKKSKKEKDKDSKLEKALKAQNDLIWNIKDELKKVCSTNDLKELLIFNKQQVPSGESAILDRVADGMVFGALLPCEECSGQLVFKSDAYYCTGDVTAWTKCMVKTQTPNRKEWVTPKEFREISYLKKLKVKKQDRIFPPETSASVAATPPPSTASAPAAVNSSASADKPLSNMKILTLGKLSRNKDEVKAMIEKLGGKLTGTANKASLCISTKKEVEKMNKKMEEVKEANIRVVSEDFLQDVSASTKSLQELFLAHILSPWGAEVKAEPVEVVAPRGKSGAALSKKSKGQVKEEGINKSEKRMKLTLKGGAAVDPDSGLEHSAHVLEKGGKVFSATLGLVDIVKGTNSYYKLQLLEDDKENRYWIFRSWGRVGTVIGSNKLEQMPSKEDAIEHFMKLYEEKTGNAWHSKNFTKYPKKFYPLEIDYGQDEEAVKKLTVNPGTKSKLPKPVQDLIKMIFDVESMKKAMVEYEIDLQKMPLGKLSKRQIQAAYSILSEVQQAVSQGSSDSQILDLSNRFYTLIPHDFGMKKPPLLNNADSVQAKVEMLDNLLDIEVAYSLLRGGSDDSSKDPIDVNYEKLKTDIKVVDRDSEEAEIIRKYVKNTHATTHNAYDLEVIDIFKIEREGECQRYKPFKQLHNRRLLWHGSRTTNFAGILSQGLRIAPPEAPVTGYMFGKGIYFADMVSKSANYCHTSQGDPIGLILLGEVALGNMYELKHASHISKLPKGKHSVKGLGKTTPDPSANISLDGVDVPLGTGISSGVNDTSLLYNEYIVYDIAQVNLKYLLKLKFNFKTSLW

B1: CPP32 (endogenous, in HeLa cell S-100) (protein)
chain: MENTENSVDSKSIKNLEPKIIHGSESMDSGISLDNSYKMDYPEMGLCIIINNKNFHKSTGMTSRSGTDVDAANLRETFRNLKYEVRNKNDLTREEIVELMRDVSKEDHSKRSSFVCVLLSHGEEGIIFGTNGPVDLKKITNFFRGDRCRSLTGKPKLFIIQACRGTELDCGIETDSGVDDDMACHKIPVEADFLYAYSTAPGYYSWRNSKDGSWFIQSLCAMLKQYADKLEFMHILTRVNRKVATEFESFSFDATFHAKKQIPCIVSMLTKELYFYH
cleavage of 35S-labeled PARP (SDS-PAGE, autoradiography): The activated extracts readily cleaved PARP into 85 kDa and 24 kDa fragments
